Assay results reported in PMC2115427.

Molecular target: urokinase plasminogen activator receptor (uPAR) of U937 cells (human (endogenous in U937)) (UniProt Q03405)
Chain of UniProt Q03405 (Q03405 23-305): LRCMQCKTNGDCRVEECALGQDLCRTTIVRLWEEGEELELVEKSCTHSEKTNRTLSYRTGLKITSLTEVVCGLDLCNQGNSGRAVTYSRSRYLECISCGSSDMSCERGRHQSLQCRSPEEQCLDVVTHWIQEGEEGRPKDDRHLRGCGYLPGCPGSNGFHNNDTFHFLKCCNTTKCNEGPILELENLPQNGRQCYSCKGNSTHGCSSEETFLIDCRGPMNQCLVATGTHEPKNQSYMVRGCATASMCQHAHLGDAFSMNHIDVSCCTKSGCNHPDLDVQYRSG

half-life of dissociation: 3 h
Substance: human urinary urokinase of high Mr (uPA) (enzyme)
